Ends that are not written are not given here.

The results in this text go back to US20060018919A1.

Assay [1] has as its target target rabbit anti-LOS antibody. Briefly: peptide ELISA, peptide coupled to NucleoLink strip, target antibody 0.4 ug/well.
Assay [2] shares this target. Briefly: capture ELISA, phage on coated antibody; OD over irrelevant rabbit antibody.

On to NMMNYIMDPRTHGGGS (also: coupled via C-terminal carboxyl to NucleoLink strips) [synthetic peptide 2 … with C-terminal GGGS spacer], for which the Binding reactivity (OD405) in assay [1] was 2.52 OD405.
As to NMMRFTELSTPSGGGS (also: coupled via C-terminal carboxyl to NucleoLink strips) [synthetic peptide 4 … with C-terminal GGGS spacer], the Binding reactivity (OD405) in assay [1] was found to be 0.99 OD405.
With NMMRFTELSTPSGGGS (peptide, not shown: large carriers) [phage clone 2-15], in assay [2], the Fold rise of ELISA value worked out at 1510 fold.
Molecule NMMRFTSQPPNNGGGS (also: coupled via C-terminal carboxyl to NucleoLink strips) [synthetic peptide 1 … with C-terminal GGGS spacer] displayed a Binding reactivity (OD405) in assay [1] of 0.4 OD405.
On the same count and under the same terms, next, NMMKYISPPIFLGGGS (also: coupled via C-terminal carboxyl to NucleoLink strips) [synthetic peptide 3 … with C-terminal GGGS spacer]: 1.11 OD405.
In turn, TLAHHKKPWILRGGGS (also: coupled via C-terminal carboxyl to NucleoLink strips) [synthetic peptide 5 … (control peptide from an unrelated clone) with C-terminal GGGS spacer] yielded a Binding reactivity (OD405) in assay [1] of 0.33 OD405.
